Assay results from the supplement of paper PMC10724198.
± gives the standard deviation of the averaged measurements.

What was measured:
Saccharomyces cerevisiae [1] = experiment: protein stability index of tFT-peptide fusion (C-terminal peptide) (PSI (0-1 scale)); higher = more stable (slower turnover)
Procedure: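 MPS profiling in S. cerevisiae of the tFT-X12 degron library: putative degron peptides plus stable controls, 12 aa, fused to the C-terminus of a sfGFP-mCherry timer. Cells are FACS-sorted into 8 mCherry/sfGFP bins and deep-sequenced. PSI runs from 0 (unstable) to 1 (stable). Backgrounds are wild type, das1Δ and doa10Δ at 30 °C, and wild type, das1Δ, cdc34-1 and cdc53-1 at 37 °C; 2-3 technical replicates each.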

Saccharomyces cerevisiae [2] = experiment: as above; details: genetic background: wild type; temperature: 30 C
[3] = genetic background: cdc34-1, temperature: 37 C
[4] = genetic background: cdc53-1, temperature: 37 C
[5] = genetic background: das1 deletion, temperature: 30 C
[6] = genetic background: das1 deletion, temperature: 37 C
[7] = genetic background: doa10 deletion, temperature: 30 C
[8] = genetic background: wild type, temperature: 30 C
[9] = genetic background: wild type, temperature: 37 C
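Note: PSI is a weighted mean of sequencing reads over stability bins, variants kept only with over 10 reads, mCherry proximal and sfGFP distal, peptide attached via GGGS linker.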

Sequence	protein stability index (Saccharomyces cerevisiae [1]; [3])	protein stability index (Saccharomyces cerevisiae [1]; [4])	protein stability index (Saccharomyces cerevisiae [1]; [5])	protein stability index (Saccharomyces cerevisiae [1]; [6])	protein stability index (Saccharomyces cerevisiae [1]; [7])	protein stability index (Saccharomyces cerevisiae [1]; [8])	protein stability index (Saccharomyces cerevisiae [1]; [9])	protein stability index (Saccharomyces cerevisiae [2])
LDTTSRSRAKIS	0.509 ± 0.031	0.6775 ± 0.0026	0.625 ± 0.022	0.718 ± 0.013	0.0782 ± 0.032	0.0968 ± 0.048	0.138 ± 0.021	0.164 ± 0.032
LFFGLCFVFFGF	0.384 ± 0.022	0.459 ± 0.0067	0.362 ± 0.032	0.48 ± 0.0058	0.407 ± 0.015	0.366 ± 0.013	0.4582 ± 0.0013	0.378 ± 0.046
LFFLSASFFFFF	0.458 ± 0.011	0.554 ± 0.0066	0.449 ± 0.034	0.547 ± 0.0075	0.222 ± 0.0092	0.207 ± 0.033	0.356 ± 0.067	0.289 ± 0.0064
LFFSPRRLSPPT	0.705 ± 0.024	0.7533 ± 0.0049	0.695 ± 0.03	0.778 ± 0.022	0.688 ± 0.019	0.695 ± 0.015	0.746 ± 0.022	0.748 ± 0.011
LFIVTFIPVLFS	0.49 ± 0.064	0.545 ± 0.034	0.374 ± 0.016	0.623 ± 0.0088	0.41 ± 0.0081	0.384 ± 0.041	0.59 ± 0.08	0.494 ± 0.0074
LFMLHFLAVLRY	0.124 ± 0.054	0.1407 ± 0.00041	0.272 ± 0.037	0.3358 ± 0.003	0.337 ± 0.017	0.242 ± 0.027	0.311 ± 0.011	0.308 ± 0.099
LFSFVCLVFFLW	0.312 ± 0.017	0.375 ± 0.006	0.291 ± 0.03	0.441 ± 0.0094	0.306 ± 0.032	0.27 ± 0.026	0.4178 ± 0.00065	0.38 ± 0.07
LFSPLKGILSVM	0.589 ± 0.0073	0.664 ± 0.011	0.51 ± 0.032	0.691 ± 0.0074	0.2641 ± 0.00021	0.316 ± 0.027	0.5081 ± 0.0023	0.448 ± 0.018
LFTTYVFLVFFQ	0.345 ± 0.011	0.474 ± 0.0096	0.337 ± 0.027	0.511 ± 0.0082	0.2692 ± 0.0019	0.29 ± 0.018	0.4367 ± 0.0009	0.372 ± 0.012
LFVFTYPFLSWL	0.617 ± 0.011	0.66 ± 0.011	0.591 ± 0.042	0.6963 ± 0.0031	0.552 ± 0.028	0.514 ± 0.016	0.615 ± 0.0094	0.478 ± 0.0061
LFVMVSVSGLVV	0.0501 ± 0.016	0.0999 ± 0.071	0.159 ± 0.031	0.255 ± 0.0059	0.145 ± 0.0021	0.16 ± 0.026	0.235 ± 0.0073	0.261 ± 0.017
LFVVHCFLSVSS	0.0267 ± 0.0027	0.0524 ± 0.033	0.0648 ± 0.021	0.165 ± 0.0062	0.0415 ± 0.0025	0.0374 ± 0.017	0.133 ± 0.029	0.109 ± 0.039
LFWFRGTIVTPR	0.693 ± 0.027	0.726 ± 0.017	0.638 ± 0.015	0.7371 ± 0.0069	0.635 ± 0.019	0.6335 ± 0.0044	0.705 ± 0.018	0.693 ± 0.034
LGCFGSSFVFCC	0.565 ± 0.015	0.668 ± 0.02	0.553 ± 0.029	0.685 ± 0.015	0.138 ± 0.0034	0.155 ± 0.017	0.355 ± 0.0038	0.23 ± 0.016
LGRVSAKFFCVL	0.654 ± 0.066	0.74 ± 0.013	0.646 ± 0.014	0.7237 ± 0.0027	0.13 ± 0.015	0.134 ± 0.022	0.246 ± 0.018	0.239 ± 0.022
LGVCLFFVRCWS	0.1796 ± 0.0014	0.205 ± 0.0098	0.189 ± 0.033	0.324 ± 0.019	0.159 ± 0.025	0.184 ± 0.033	0.271 ± 0.034	0.174 ± 0.047
LIFRLCVCGVFW	0.516 ± 0.03	0.549 ± 0.015	0.468 ± 0.044	0.5218 ± 0.0011	0.278 ± 0.017	0.271 ± 0.032	0.376 ± 0.009	0.4101 ± 0.00073
LILRVLFLFEPC	0.4385 ± 0.0028	0.4842 ± 0.0035	0.389 ± 0.026	0.511 ± 0.0049	0.395 ± 0.022	0.368 ± 0.031	0.481 ± 0.0066	0.42 ± 0.025
LIRLCVAPMVCR	0.455 ± 0.02	0.48 ± 0.0056	0.349 ± 0.023	0.5145 ± 0.0016	0.32 ± 0.005	0.349 ± 0.02	0.485 ± 0.011	0.438 ± 0.015
LKKTLNGRRKMI	0.626 ± 0.019	0.73 ± 0.042	0.638 ± 0.048	0.736 ± 0.015	0.239 ± 0.063	0.282 ± 0.036	0.373 ± 0.02	0.416 ± 0.037
LLASFWKFIVNI	0.613 ± 0.036	0.722 ± 0.015	0.641 ± 0.058	0.7 ± 0.073	0.139 ± 0.012	0.166 ± 0.012	0.166 ± 0.011	0.23 ± 0.016
LLAWLHTVQRVG	0.695 ± 0.028	0.7529 ± 0.0028	0.659 ± 0.02	0.7844 ± 0.0033	0.226 ± 0.0046	0.271 ± 0.023	0.493 ± 0.013	0.339 ± 0.011
LLFLVCFFPSIS	0.46 ± 0.061	0.534 ± 0.016	0.311 ± 0.045	0.549 ± 0.033	0.304 ± 0.0092	0.313 ± 0.043	0.52 ± 0.036	0.454 ± 0.05
LLFYSYFFFVLY	0.172 ± 0.034	0.148 ± 0.0098	0.248 ± 0.021	0.341 ± 0.015	0.312 ± 0.023	0.213 ± 0.0032	0.286 ± 0.023	0.265 ± 0.0037
LLGGRVLWAWRV	0.653 ± 0.045	0.689 ± 0.052	0.626 ± 0.016	0.737 ± 0.019	0.155 ± 0.026	0.199 ± 0.022	0.3907 ± 0.0025	0.376 ± 0.022
LLLLFPSPLFIR	0.126 ± 0.057	0.0999 ± 0.026	0.235 ± 0.012	0.303 ± 0.022	0.553 ± 0.024	0.216 ± 0.019	0.272 ± 0.02	0.281 ± 0.05
LLLRQVFSLGVF	0.549 ± 0.048	0.64 ± 0.023	0.558 ± 0.011	0.6741 ± 0.0063	0.104 ± 0.018	0.142 ± 0.014	0.312 ± 0.021	0.162 ± 0.0081
LLLVSLAVPLSL	0.524 ± 0.013	0.569 ± 0.014	0.465 ± 0.017	0.559 ± 0.021	0.451 ± 0.03	0.459 ± 0.02	0.539 ± 0.0084	0.509 ± 0.022
LLSLPTTNLMAF	0.575 ± 0.029	0.61058 ± 0.00044	0.49 ± 0.026	0.615 ± 0.0099	0.356 ± 0.02	0.403 ± 0.018	0.56467 ± 0.00055	0.484 ± 0.014
LLTLILRIFVLN	0.304 ± 0.031	0.451 ± 0.0055	0.316 ± 0.028	0.476 ± 0.028	0.144 ± 0.01	0.147 ± 0.028	0.217 ± 0.037	0.225 ± 0.024
